Measured values taken from US20130005646A1 (Novo Nordisk, published 2013).
Starred links: 1 amine or outer side, 2 acyl side, 3 side chain; linkers in the order of their positions; H or OH if unused. Positions of bridges follow the written chain, without caps; N, C: chain ends. Groups on a side chain read outwards from the residue. Primed or numbered codes have the meaning given here. No end group written: not given here. *: point of attachment. C18 diacid′ = 17-carboxyheptadecanoyl on γGlu amine: (S)-4-carboxy-4-(17-carboxyheptadecanoylamino)butyryl; C20 diacid = O=C(O)CCCCCCCCCCCCCCCCCCC(=O)*; C18 diacid = O=C(O)CCCCCCCCCCCCCCCCC(=O)*; γGlu = O=C(O)[C@H](CCC(=O)[*:2])N[*:1]; AEEA = NCCOCCOCC(=O)O

T1: human calcitonin (a) receptor (human, UniProt P30988 25-474)
T1 sequence (looked up): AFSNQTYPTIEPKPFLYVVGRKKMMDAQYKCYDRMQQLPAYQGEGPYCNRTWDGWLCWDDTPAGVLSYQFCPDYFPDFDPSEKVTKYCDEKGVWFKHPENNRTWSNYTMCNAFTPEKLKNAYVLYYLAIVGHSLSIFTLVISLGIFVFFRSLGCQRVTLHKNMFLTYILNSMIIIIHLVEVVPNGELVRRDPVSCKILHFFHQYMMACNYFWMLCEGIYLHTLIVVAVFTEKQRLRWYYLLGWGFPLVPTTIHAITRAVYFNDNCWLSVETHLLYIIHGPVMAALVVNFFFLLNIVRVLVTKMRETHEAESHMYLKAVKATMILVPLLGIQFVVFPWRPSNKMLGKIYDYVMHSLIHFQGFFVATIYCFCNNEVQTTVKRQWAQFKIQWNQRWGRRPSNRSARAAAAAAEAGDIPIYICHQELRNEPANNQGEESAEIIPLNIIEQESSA

T2: rat calcitonin (a) receptor (rat, UniProt P32214 25-516)
T2 sequence (looked up): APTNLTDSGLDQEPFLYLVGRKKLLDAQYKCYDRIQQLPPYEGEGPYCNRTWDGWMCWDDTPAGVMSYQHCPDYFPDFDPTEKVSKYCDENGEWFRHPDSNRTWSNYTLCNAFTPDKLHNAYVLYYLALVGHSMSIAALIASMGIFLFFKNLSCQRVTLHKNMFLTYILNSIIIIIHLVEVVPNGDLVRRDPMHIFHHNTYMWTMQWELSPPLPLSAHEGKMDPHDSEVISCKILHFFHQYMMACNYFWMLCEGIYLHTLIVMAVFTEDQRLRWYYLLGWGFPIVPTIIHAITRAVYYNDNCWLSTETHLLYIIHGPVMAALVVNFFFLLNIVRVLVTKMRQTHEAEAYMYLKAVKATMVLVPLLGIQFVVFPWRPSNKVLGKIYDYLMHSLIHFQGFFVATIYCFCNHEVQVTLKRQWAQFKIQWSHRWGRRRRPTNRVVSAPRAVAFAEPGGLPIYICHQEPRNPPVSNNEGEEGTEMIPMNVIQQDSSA

T3: rat amylin 3(a) receptor (rat calcitonin(a) receptor + rat RAMP3) (rat, UniProt P32214 25-516; Q9JJ73 23-147)
T3 sequence (looked up) 1: T2 sequence (looked up)
T3 sequence (looked up) 2: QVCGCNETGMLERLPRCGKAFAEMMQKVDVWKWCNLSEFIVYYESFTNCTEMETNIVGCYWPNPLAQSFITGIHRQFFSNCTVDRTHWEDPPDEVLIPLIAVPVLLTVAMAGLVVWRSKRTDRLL

T4: human amylin 3(a) receptor (human calcitonin receptor + RAMP-3) (human, UniProt P30988 25-474; O60896 24-148)
T4 sequence (looked up) 1: T1 sequence (looked up)
T4 sequence (looked up) 2: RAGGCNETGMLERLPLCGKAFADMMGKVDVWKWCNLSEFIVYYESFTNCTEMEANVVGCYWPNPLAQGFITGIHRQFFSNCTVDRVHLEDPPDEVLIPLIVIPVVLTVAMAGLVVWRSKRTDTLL

B1: N-alpha-[(S)-4-Carboxy-4-(17-carboxyheptadecanoylamino)butyryl]-[Glu14,Arg17,His35]-pramlintide (peptide)
peptide: {C18 diacid-γGlu}-KCNTATCATQRLAEFLRHSSNNFGPILPPTNVGSHTY-NH2
modifications: disulfide 2-7
SMILES: CC[C@H](C)[C@H](NC(=O)[C@@H]1CCCN1C(=O)CNC(=O)[C@H](Cc1ccccc1)NC(=O)[C@H](CC(N)=O)NC(=O)[C@H](CC(N)=O)NC(=O)[C@H](CO)NC(=O)[C@H](CO)NC(=O)[C@H](Cc1c[nH]cn1)NC(=O)[C@H](CCCNC(=N)N)NC(=O)[C@H](CC(C)C)NC(=O)[C@H](Cc1ccccc1)NC(=O)[C@H](CCC(=O)O)NC(=O)[C@H](C)NC(=O)[C@H](CC(C)C)NC(=O)[C@H](CCCNC(=N)N)NC(=O)[C@H](CCC(N)=O)NC(=O)[C@@H](NC(=O)[C@H](C)NC(=O)[C@@H]1CSSC[C@H](NC(=O)[C@H](CCCCN)NC(=O)CC[C@H](NC(=O)CCCCCCCCCCCCCCCCC(=O)O)C(=O)O)C(=O)N[C@@H](CC(N)=O)C(=O)N[C@@H]([C@@H](C)O)C(=O)N[C@@H](C)C(=O)N[C@@H]([C@@H](C)O)C(=O)N1)[C@@H](C)O)C(=O)N[C@@H](CC(C)C)C(=O)N1CCC[C@H]1C(=O)N1CCC[C@H]1C(=O)N[C@H](C(=O)N[C@@H](CC(N)=O)C(=O)N[C@H](C(=O)NCC(=O)N[C@@H](CO)C(=O)N[C@@H](Cc1c[nH]cn1)C(=O)N[C@H](C(=O)N[C@@H](Cc1ccc(O)cc1)C(N)=O)[C@@H](C)O)C(C)C)[C@@H](C)O
B2: N-epsilon21-[2-(2-{2-[2-(2-{2-[(S)-4-Carboxy-4-(17-carboxyheptadecanoylamino)butyrylamino]ethoxy}ethoxy)acetylamino]ethoxy}ethoxy)acetyl]-[Glu14,His17,Lys21,Glu … (peptide)
peptide: KCNTATCATQRLAEFLHHSSK([AEEA-AEEA-γGlu-C18 diacid])NFGPILPPTNVGSETY-NH2
modifications: disulfide 2-7; N-terminus assumed
SMILES: CC[C@H](C)[C@H](NC(=O)[C@@H]1CCCN1C(=O)CNC(=O)[C@H](Cc1ccccc1)NC(=O)[C@H](CC(N)=O)NC(=O)[C@H](CCCCNC(=O)COCCOCCNC(=O)COCCOCCNC(=O)CC[C@H](NC(=O)CCCCCCCCCCCCCCCCC(=O)O)C(=O)O)NC(=O)[C@H](CO)NC(=O)[C@H](CO)NC(=O)[C@H](Cc1c[nH]cn1)NC(=O)[C@H](Cc1c[nH]cn1)NC(=O)[C@H](CC(C)C)NC(=O)[C@H](Cc1ccccc1)NC(=O)[C@H](CCC(=O)O)NC(=O)[C@H](C)NC(=O)[C@H](CC(C)C)NC(=O)[C@H](CCCNC(=N)N)NC(=O)[C@H](CCC(N)=O)NC(=O)[C@@H](NC(=O)[C@H](C)NC(=O)[C@@H]1CSSC[C@H](NC(=O)[C@@H](N)CCCCN)C(=O)N[C@@H](CC(N)=O)C(=O)N[C@@H]([C@@H](C)O)C(=O)N[C@@H](C)C(=O)N[C@@H]([C@@H](C)O)C(=O)N1)[C@@H](C)O)C(=O)N[C@@H](CC(C)C)C(=O)N1CCC[C@H]1C(=O)N1CCC[C@H]1C(=O)N[C@H](C(=O)N[C@@H](CC(N)=O)C(=O)N[C@H](C(=O)NCC(=O)N[C@@H](CO)C(=O)N[C@@H](CCC(=O)O)C(=O)N[C@H](C(=O)N[C@@H](Cc1ccc(O)cc1)C(N)=O)[C@@H](C)O)C(C)C)[C@@H](C)O
B3: N-epsilon25-[2-(2-{2-[2-(2-{2-[(S)-4-Carboxy-4-(17-carboxyheptadecanoylamino)butyrylamino]ethoxy}ethoxy)acetylamino]ethoxy}ethoxy)acetyl]-[Glu14,His17,Lys25]-pr … (peptide)
peptide: KCNTATCATQRLAEFLHHSSNNFGK([AEEA-AEEA-γGlu-C18 diacid])ILPPTNVGSNTY-NH2
modifications: disulfide 2-7; N-terminus assumed
SMILES: CC[C@H](C)[C@H](NC(=O)[C@H](CCCCNC(=O)COCCOCCNC(=O)COCCOCCNC(=O)CC[C@H](NC(=O)CCCCCCCCCCCCCCCCC(=O)O)C(=O)O)NC(=O)CNC(=O)[C@H](Cc1ccccc1)NC(=O)[C@H](CC(N)=O)NC(=O)[C@H](CC(N)=O)NC(=O)[C@H](CO)NC(=O)[C@H](CO)NC(=O)[C@H](Cc1c[nH]cn1)NC(=O)[C@H](Cc1c[nH]cn1)NC(=O)[C@H](CC(C)C)NC(=O)[C@H](Cc1ccccc1)NC(=O)[C@H](CCC(=O)O)NC(=O)[C@H](C)NC(=O)[C@H](CC(C)C)NC(=O)[C@H](CCCNC(=N)N)NC(=O)[C@H](CCC(N)=O)NC(=O)[C@@H](NC(=O)[C@H](C)NC(=O)[C@@H]1CSSC[C@H](NC(=O)[C@@H](N)CCCCN)C(=O)N[C@@H](CC(N)=O)C(=O)N[C@@H]([C@@H](C)O)C(=O)N[C@@H](C)C(=O)N[C@@H]([C@@H](C)O)C(=O)N1)[C@@H](C)O)C(=O)N[C@@H](CC(C)C)C(=O)N1CCC[C@H]1C(=O)N1CCC[C@H]1C(=O)N[C@H](C(=O)N[C@@H](CC(N)=O)C(=O)N[C@H](C(=O)NCC(=O)N[C@@H](CO)C(=O)N[C@@H](CC(N)=O)C(=O)N[C@H](C(=O)N[C@@H](Cc1ccc(O)cc1)C(N)=O)[C@@H](C)O)C(C)C)[C@@H](C)O
B4: N-alpha-[(S)-4-Carboxy-4-(19-carboxynonadecanoylamino)butyryl]-His-[Glu14,His17,His35]-pramlintide (peptide)
peptide: {C20 diacid-γGlu}-HKCNTATCATQRLAEFLHHSSNNFGPILPPTNVGSHTY-NH2
modifications: disulfide 3-8
SMILES: CC[C@H](C)[C@H](NC(=O)[C@@H]1CCCN1C(=O)CNC(=O)[C@H](Cc1ccccc1)NC(=O)[C@H](CC(N)=O)NC(=O)[C@H](CC(N)=O)NC(=O)[C@H](CO)NC(=O)[C@H](CO)NC(=O)[C@H](Cc1c[nH]cn1)NC(=O)[C@H](Cc1c[nH]cn1)NC(=O)[C@H](CC(C)C)NC(=O)[C@H](Cc1ccccc1)NC(=O)[C@H](CCC(=O)O)NC(=O)[C@H](C)NC(=O)[C@H](CC(C)C)NC(=O)[C@H](CCCNC(=N)N)NC(=O)[C@H](CCC(N)=O)NC(=O)[C@@H](NC(=O)[C@H](C)NC(=O)[C@@H]1CSSC[C@H](NC(=O)[C@H](CCCCN)NC(=O)[C@H](Cc2c[nH]cn2)NC(=O)CC[C@H](NC(=O)CCCCCCCCCCCCCCCCCCC(=O)O)C(=O)O)C(=O)N[C@@H](CC(N)=O)C(=O)N[C@@H]([C@@H](C)O)C(=O)N[C@@H](C)C(=O)N[C@@H]([C@@H](C)O)C(=O)N1)[C@@H](C)O)C(=O)N[C@@H](CC(C)C)C(=O)N1CCC[C@H]1C(=O)N1CCC[C@H]1C(=O)N[C@H](C(=O)N[C@@H](CC(N)=O)C(=O)N[C@H](C(=O)NCC(=O)N[C@@H](CO)C(=O)N[C@@H](Cc1c[nH]cn1)C(=O)N[C@H](C(=O)N[C@@H](Cc1ccc(O)cc1)C(N)=O)[C@@H](C)O)C(C)C)[C@@H](C)O
B5: N-alpha-[(S)-4-Carboxy-4-(19-carboxynonadecanoylamino)butyryl]-[Glu14,Arg17,Ala25,Pro26,Ser28,Ser29,His35]-pramlintide (peptide)
peptide: {C20 diacid-γGlu}-KCNTATCATQRLAEFLRHSSNNFGAPLSSTNVGSHTY-NH2
modifications: disulfide 2-7
SMILES: CC(C)C[C@H](NC(=O)[C@H](CCCNC(=N)N)NC(=O)[C@H](CCC(N)=O)NC(=O)[C@@H](NC(=O)[C@H](C)NC(=O)[C@@H]1CSSC[C@H](NC(=O)[C@H](CCCCN)NC(=O)CC[C@H](NC(=O)CCCCCCCCCCCCCCCCCCC(=O)O)C(=O)O)C(=O)N[C@@H](CC(N)=O)C(=O)N[C@@H]([C@@H](C)O)C(=O)N[C@@H](C)C(=O)N[C@@H]([C@@H](C)O)C(=O)N1)[C@@H](C)O)C(=O)N[C@@H](C)C(=O)N[C@@H](CCC(=O)O)C(=O)N[C@@H](Cc1ccccc1)C(=O)N[C@@H](CC(C)C)C(=O)N[C@@H](CCCNC(=N)N)C(=O)N[C@@H](Cc1c[nH]cn1)C(=O)N[C@@H](CO)C(=O)N[C@@H](CO)C(=O)N[C@@H](CC(N)=O)C(=O)N[C@@H](CC(N)=O)C(=O)N[C@@H](Cc1ccccc1)C(=O)NCC(=O)N[C@@H](C)C(=O)N1CCC[C@H]1C(=O)N[C@@H](CC(C)C)C(=O)N[C@@H](CO)C(=O)N[C@@H](CO)C(=O)N[C@H](C(=O)N[C@@H](CC(N)=O)C(=O)N[C@H](C(=O)NCC(=O)N[C@@H](CO)C(=O)N[C@@H](Cc1c[nH]cn1)C(=O)N[C@H](C(=O)N[C@@H](Cc1ccc(O)cc1)C(N)=O)[C@@H](C)O)C(C)C)[C@@H](C)O

What was measured:
Assay in all cases: cell-based or functional assay
[1] = target: T1, human calcitonin (a) receptor
[2] = target: T2, rat calcitonin (a) receptor
[3] = target: T3, rat amylin 3(a) receptor (rat …)
[4] = target: T4, human amylin 3(a) receptor (human …)

Row | Binder | CTa receptor human EC50 [1] | CTa receptor rat EC50 [2] | Amylin receptor rat EC50 [3] | Amylin receptor human EC50 [4]
1 | B1 | 334 pM | 2360 pM | 38 pM | 67.5 pM
2 | B2 | 216 pM | 2060 pM | 504 pM | 184 pM
3 | B3 | 45 pM | 167 pM | 52 pM | 38.5 pM
4 | B4 | 210 pM | 656 pM | 305 pM | 182 pM
5 | {C18 diacid′-γGlu}-EKCNTATCATQRLAEFLRHSSNNFGPILPPTNVGSHTY-NH2 (disulfide 3-8) [N-alpha-[(S)-4-Carboxy-4-(17-carboxyheptadecanoylamino)butyryl]-Glu-[Glu14,Arg17,His35]-pramlintide] | 1070 pM | 17600 pM | 281 pM | 172 pM
6 | B5 | 342 pM | 5350 pM | 1330 pM | 217 pM
